The target in assay [1] is T1, bovine trypsin (bovine, UniProt P00760). As to the kind of experiment: GPK-AMC enzyme inhibition assay, Dixon plot, bovine trypsin. On the procedure:
(§1) Inhibitory activity against tryptase and bovine trypsin was measured using Gly-Pro-Lys-aminomethylcoumarin as a substrate. The reaction was performed in assay buffer that consisted of 0.1M Tris (pH 8.0), 1 µg/ml heparin, 0.02% Triton X-100, with 20 mM CaCl_2 included only in the trypsin assays. The amount of coumarin produced was determined by measuring the fluorescence (ex=370 nm, em=432 nm) on a Perkin-Elmer LS-50B fluorimeter. To measure tryptase activity, 12 µl of a 1 nM solution of tryptase (tetramer) was incubated with either the N- (34 to 650 nM final) or the C-terminal (7–150 nM final) domain of SLPI in 1.0 ml of assay buffer for 5 minutes at 37° C. The reaction was started by the addition of the substrate GPK-AMC (20 or 40 µM final) and the increase in fluorescence was measured over a 2 minute period. In order to measure trypsin activity, 3.3 µl of a 10 µg/ml solution was incubated with either the N- or C- terminal domains of SLPI, and assayed using both 10 and 20 µM GPK-AMC. To determine K_i values, Dixon plots of the form 1/V vs [I] were constructed. These are shown in FIG. 8, and the results are listed in Table V. The K_i values for the inhibition of the tryptase catalyzed cleavage of GPK-AMC by the N- and C-terminal domains were determined to be 290 nM and 4.8 nM, respectively (FIG. 8).

The target of assay [2] is T1, bovine trypsin. The assay is described as follows: GPK-AMC enzyme inhibition assay with bovine trypsin. As for the experimental part: as §1

The values below come from patent US5633227, “Secretory leukocyte protease inhibitor as an inhibitor of tryptase” (Miles, Inc., dated 1997).

Some results are limits rather than exact numbers.

B1: C-terminal domain of SLPI (amino acids 50-107) (other)
chain: PVDTPNPTRRKPGKCPVTYGQCLMLNPPNFCEMDGQCKRDLKCCMGMCGKSCVSPVKA
For orientation: Ki means a measure of affinity in units of concentration, obtained from inhibition or displacement. High values mean a looser hold on the target, low ones a stronger hold on the target. In the case of B1, the affinity in assay [1] corresponds to a Ki of 130 nM.

B2: N-terminal domain of SLPI (amino acids 1-49) (other)
chain: SGKSFKAGVCPPKKSAQCLRYKKPECQSDWQCPGKKRCCPDTCGIKCLD
As for B2, in assay [2], the binding result is listed as “no binding (tested: 1800 nM)”. In assay [1], this molecule yielded a Ki of more than 1800 nM.
